Test results from a protein production outcome set (Wang et al. 2014).

Assay: label from the status in PepcDB records
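Also: failed if final PepcDB status was selected cloned or expressed and not failed if soluble or beyond.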

Question: With “MGHHHHHHSHMIESGIWSRMSEMIRSSGHSHHCSPQEYRFLPPVGDDDLPGDLQSLSWLTAVDVPRLQQMANGRIDLGSSGVTHPHPGALAGTADLHVGAAPRPLLRRSQTAVVPRGVLGLSPIGNHRASAEQMNQFPAGGQASSGLQEMPQLYSPATQIPFPLPLGSQQCPPAGLYGSPFSARPSYPQAHGAMHASQEPHPKHYPKPIYSYSCLIAMALKNSKTGSLPVSEIYSFMKEHFPYFKTAPDGWKNSVRHNLSLNKCFEKVETKSSGSSRKGCLWALNLARIDKMEEEMHKWKRKDLAAIHRSMANPEELDKLISDRPESCRRPGKRGEPKAPMLTHATTVAMAHSCLAISQLPPKPLMTLSLQSVPLHHQLQPQAHLAPDSPAPAQTPPLHALPSLSPGPLPQPAMGRVPGDFLNINSDMNTEVDALDPSIMDFALQGNLWEEMKEDSFSLDTLEAFGDSPLGCDLGAPSLTPVSGNSDQSFPDVQVTGLYAAYSTAADGVAPSAANSAQYLGTPGNKPIALL” as the sequence, how does the protein production read?
Answer: failed

Question: For “MRYCRRIGDGHITANSRRMFMVEPAGRKPDPQRRTPHPSVAPADAPWPAHSPVDPAVRRFRGAARYAIWRRGAEWTAVADGPQWSAALAPRIWALRQRQWPVLAVSAPMLVVAGAVALAGVQGWSPVAWTALLVAEVLLRVWVARQAGPWRTAALQRTGWQLVTRLRAISVADAVTTAQIRAGRPQR”, which protein production is on record?
Answer: failed

Question: For “MQKGKDLTLRLMIVDDSVESAETIVTALRNGGIAVRPSRPQSQEELASMLSGQIDLAILGQAQQIPMSALQTQIAGSGKDIPILLLAERIEENALVEAASHGVRAIALRHRPAHLLALVRSEWDDLQARRGLRRIEAQMRETERRCDALIASSRDPIAYVHEGMHIRANDAYLEMFGFESFDDVEGISLLDMIAAQYVDDFKQLLKAMSKGEPPPAQYKLDARRVEGDTFPATMEFATATYEGEPCIQVVFRRREEFDPELAREVEDLRQRDQVTGLLNRPTFMVALEQAVAQAGRSEGQSGFLLIEPDHYARILPEFGLDSADALIAALAAHVASVLDDSVLAARFGEHSFALLLNGNYARTHALAETVRNAFAQHVFSVGTRSATVTVSIGGVQIGEKIASIGQVLNRGTEAVRTTAELGGNAVSIYDPAAADRAEEERIERWVEQLREALVGDGFLLHYQPVLNLQGEPLELYQAFLRLERNGEMMSPNAFMAIAEEHDLVTEIDRWVVARAIRQLGERQRAGHKTHLLVRIGPNSFSDPQMIDTIREQLAVYGVPGERLWLQTPESKVFTHLRNAQQFLAAVSAMDCKVGLEQFGSGLDSFQLLAHFHPAFLKLDRGITGDIASARDSQEKIREITSRAQPAGILTMAEFVADAQSMSSFFSAGVDYVQGDFVAPTGPLMNYEFG”, which protein production is on record?
Answer: failed

Question: With “SLIGFLSDRQGFEKQYHDIDLSSFGIREGISEIIASTGFEHPNAAPIGIVMKGERPFVRLFKGSHTWENVLKEKCLASNVVYDPILFVRSTFSDLVPSEFEYVDAGEFKFPVLKEAIAWVVFECINLRNTDQSLVADLVPLNAGFNERNIKELPVPNRGFNAVLEATVHATRYQLTGEEKYLELIRHYESLASKCGGDAEKKAMKLIYEALGL” as the sequence, how does the protein production read?
Answer: not failed

Question: Which protein production does the source give for “MEAIRVFGPKLGSRLSIRSHTTAFPACKLSRFPLTSFPGKHAHLVLLKATTIPLASGDKENNRKFEKLGPSEWGNQFLFAHVDLSEMDALEREIEALKPKVRDMFMSFKGMKSNKKNLFLIYLLVSLGLAHHFEDEIEESVKGCSQEMVEMMDGENDLYTVSIIFWVFRTYGHNISSDIFNRFKGHNGKFKECLATDAKGILSLYEAAHMGTTTDYILDEALSFTLSYLESLAANGTCKPNLVRRIRNALGLLQNKNVEILVAKEYIRFYEQEEDCDKTILEFSMLNLKFLQLHYLQELKLLTKWYKEQDFESKLPPYYRDRIVELHLATLAYINPKYSRVRIILTMIYTIQIILDDTCDRYASLREVESLAATIERWDHNDHAMEGLPDYLKSVAKFIFHTFQEFEREVSSESGGSYSLKATIEDCKRMMRSNLQLAKWAVTGHLPSFDEYLDVAGVEIAVYFTVAGILLGMENINKKEAYEWLIFRDKLVRAMSTKARLVNDLFGYKDDMRRGYVTNSINCYKKQYGVTEEEAFRKLHQMVADGDKMMNEEFLKPINVPHQVLKAVLDTLRAINICYDNEDGFTRLNGNLKNYITSMYVDL” here?
Answer: failed

Question: With “MWQLLSRLNKNLVLTIPAMMAAGFVFGLVTETGFLKELIIPFTFLMVYPMMVTLKLKKVLEGGDGKAQLFTQFINFAVVPFVAFGLGRLFFADRPYMALGLLLAALVPTSGMTISWTGFARGNLEAAVKMTVVGLILGSIATPFYVQALMGAHVEVDMTGIMKQIAVIVFLPMAVGYATQRYLIAKHGQKGFQEQWAPRFPCLSTLGVLGIVFIAIALKAQAIAARPQDLLAILLPLAILYGINYSLSTVVGRLFLPRGDAIALAYGTVMRNLSIALAVAMNAFGKAGSDAALVIALAYIIQVQSAAWYVKFTGTLFGEAPAPSCPAPRRN” as the sequence, how does the protein production read?
Answer: failed

Question: With “MDTPPTVFSIIIPVYNRPDEVRELLESLLIQTNSDFEVIIVEDGSSVCCDKEVDRVRELLRIQYVRVPNGGPAAARNIGARMAVGEYLLILDSDVVLPSGYIAAVKKRIEQMQADAFGGPDAAAEGFSPIQKAINYAMTSFFTTGGIRGGRRVRLDKFYPRSFNFGCKLSVYRQLGGFSEEMRFGEDIDFSLRLFKAGYNVCLFPEAFVFHKRRIDFKKFFRQVYNSGIARIHLQRRHPGSMKPVHILPALFTLGSVILAVGQFFCPWSLLPLLLLALLFLLDAWHTNRSLRIAILAVPASFVQLWGYGSGFLVACWRCYVLGHQEFRAFDKTFYN” as the sequence, how does the protein production read?
Answer: failed

Question: Which protein production does the source give for “MRGMAANQGERIRRRLSTGERREQLLSVGARLFSESPYDEVWIEQVAEIAGVSRGLLYHYFPNKRDFFAAVVERESERMLRMTAAVPGVPVREQLTAGLDAYLEYVRAHAHGYRAFHRADAAGDRAVRRVYQKALAAQERQILAALAADPEFGPAFEERGDVRLAVRGWLAFTTAVCLEWLRDPEPAREQVRDLCARALLGAVAP” here?
Answer: not failed

Question: With “MHSSSRASFTTRGDIRRQVEGFSASGERNKDTVVDLSTFFAERGYSNNQAPTKYWEEKLVTIGNVVVPKWVPVKERNSSNKQKEGEDEVFIGFEAIYYPEQPPERQPITLYQEENKVEEEEQSRE” as the sequence, how does the protein production read?
Answer: not failed

Question: Which protein production does the source give for “MKLQGSNILGQEQIDLLTTRGLNFVWFPKQLETIYRFQYQNGAAYEFRYRAPIILILYLFLSFGIYQVLPTEQVLSWLSYYSWVGIIVLIAWILSFIKKLNQWFDYYVGIGSSAAVAITFILINVLENGQDNVLFHAAMMYAIVIIYGAVGMRFYTAIIAGWVGGLIGILVSTYLNGDIDWTFLNRTYTFSSFLGMTLAYATDRQHRENYLQNCMIELNRIELMQQAQQLSLLSQQDALTGLANRRYLDETLDNEWRRALRHETPLTIMMVDIDFFKPYNDSLGHLKGDQCLKDIATAISSIAARSGDLVARYGGEEFLLLFPMTNAQQAKIQAERLMNAIKKIAIVHPCSSVSPYVTISVGVATTIPRLNDSISAFVSRADHALYQAKTNGRNQYQIALNEEQIVDLT” here?
Answer: failed

Question: For “MTTPSRRRLMRDFKKLQEDPPAGVSGAPTEDNILTWEAIIFGPQETPFEDGTFKLSLEFTEEYPNKPPTVKFISKMFHPNVYADGSICLDILQNRWSPTYDVAAILTSIQSLLDEPNPNSPANSLAAQLYQENRREYEKRVQQIVEQSWLNFGENEGDAVLKDDVEIEEIAAPGANDADDDRMDEGASGSNA”, which protein production is on record?
Answer: not failed

Question: For “MPSEAFRRHRAYRENKLQPLVSVLICAYNVEKYFAQSLAAVVNQTWRNLDILIVDDGSTDGTLAIAQRFQEQDGRIRILAQPRNSGLIPSLNIGLDELAKSGGGGEYIARTDADDIAAPDWIEKIVGEMEKDRSIIAMGAWLEVLSEEKDGNRLARHHEHGKIWKKPTRHEDIADFFPFGNPIHNNTMIMRRSVIDGGLRYNTERDWAEDYQFWYDVSKLGRLAYYPEALVKYRLHANQVSSKYSIRQHEIAQGIQKTARNDFLQSMGFKTRFDSLEYRQIKAVAYELLEKHLPEEDFERARRFLYQCFKRTDTLPAGAWLDFAADGRMRRLFTLRQYFGILHRLLKNR”, which protein production is on record?
Answer: failed

Question: Which protein production does the source give for “MELIEVQEGKAKILIPKAESIYDSPVFYNPRMALNRDIVVVLLNILNPKIVLDALSATGIRGIRFALETPAEEVWLNDISEDAYELMKRNVMLNFDGELRESKGRAILKGEKTIVINHDDANRLMAERHRYFHFIDLDPFGSPMEFLDTALRSAKRRGILGVTATDGAPLCGAHPRACLRKYLAVPLRGELCHEVGTRILVGVIARYAAKYDLGIDVILAYYKDHYFRAFVKLKDGARKGDETLEKLGYIYFDDKTGKFELEQGFLPTRPNAYGPVWLGPLKDEKIVSKMVKEAESLSLARKKQALKLLKMIDQELDIPLFYDTHAIGRRLKIETKKVEEIISALREQGYEATRTHFSPTGIKTSAPYEVFIETIKRI” here?
Answer: not failed

Question: With “MSGSQPGRDKAIPAPRPTADIWENPDQLPADRGDLIKAKLTPAVITIFLRNNLKRIALLASALFVLGMIVLWLLPVRYAATALVMVDPREQRVTTDQEVLPGIGQDAAALQSLIEIAKSDGFLRPLVEKLKVAEDHEIAGSETDPARVLDRFRKHLEIARRGLTYVIEMTFVAKDPQRAAYYANAVAEAFVASQTQVRAVAADEAAGWLSSRLKTLNEKLRASEDAVAAFKTQYRIVDAGRESTTRQLRVTELTQQVSAARLRTEEAKNRYEQAQRDLKSDVDGSTGSKSDLVSVLRTQRTQLNDQIAQKRAVLGDRHPELVIAYNQLAELNRQIEAERKRNIVSAKSDYDAMRDQLKALEQQLKSLETEMLGDDQAAVKLKELQREANANRAIYEQFLERYNTTNQQRLLQATQTKVASFATPPTRPTRPPLLVLIAAIAVASILVSIAVVAMLASLSNQPEQADNSGPPEGATAPVPVEAAATSAAEPIEEKKPAADYSNLPIVLRIPDLSGARTLGGKLAMLGGERRLDHYVVGLLDAIGVKPSQRGMVVLVTSVDPGAGKSSVARALNAIAVDRGMLSVVIEVAGQARSVPAAPSNRAEPDGGALVRVLKTTIPSVVRLIASEPDVSAQNDVRSEFDLILIDAPALATQTEVAEIAAHTDLNLLVIDSAVTEAGAALEAQALLSRRGHAPAGVVVNKAGAQPAPAAVPAARLAS” as the sequence, how does the protein production read?
Answer: failed

Question: With “MITTFKCVLVTKNIRMNERLMNSQSGYLRKAVNHPINWYTWSNDVFEIAKKENKPILIDVGAAWCHWCNVMDEDTYSNPEIAKIVNENFIPVKVDRDEMPDLDRLLQNAAMAITGESGWPLTIFMTPEGKVFFGGTYFPPEDRYGRIGFKRLLLEILRIWREDRNQILLSS” as the sequence, how does the protein production read?
Answer: failed

Question: With “MAIARHRSFSRAAIELGVSASALSHALKGLETRLGVRLLNRTTKSVTPTAAGEELVQSVLQPFDTIEGALESLNRYRNTPTGRIRINAAVEAANLLLAPVMPAFMDRYPDIEIDIVASNRMVDVTDAGFDAGIRYGGTVPEDMVARRLSADIRWVIAASPDYLERYGTPEHPDDLLHHRCISNRLGDDRVYRWELARDGETYQMTVPGSVTVNHAETGLVAVLGGAGLMYFPEPLVAPYVKDGRLRLVLTEWSPLEEGFHIYYSSRRQLPTGLRLLIEFIQEARPLGL” as the sequence, how does the protein production read?
Answer: failed

Question: For “SSCGNDESDPDSTVTIAMATVEKQPQYDAPYLVLDNGEKLWVVQHIVPYRDLKAGERIFGNYSFLEAGESGFAYNIRLNDYTLVPVQKIIGLNPDNMDSIGNMKVQIKDMWPSDDYLNVRFMLNFPSPQKPILNLVVNEMIPWTKDGYAHLELRYNNNGSQGRLVPGMVSFKLDDYSPENSELKGIKVLVNPVDGEEKTYIFSYPLTGEDVPGFNPLDLAELK”, which protein production is on record?
Answer: not failed

Question: For “MEDRIPVIKRFTGGGTVIVDKSTLFVSLICNKDDVPNVQPYPRSVMAWSGSLYDEVFKSVNGFQLRENDYVFGDRKFGGNAQSIIKNRWIHHTSFLWDYDVRNMAYLKLPSRVPQYRLERDHTDFVCRMKDYIERSDFVEKTVKAVRNQFTLKQVNLEDIDSYAKGGYLKTTRLLTMEELEEAMADTIQNT”, which protein production is on record?
Answer: failed

Question: Which protein production does the source give for “MIYKITLTDISLAQAFISIPQDVIALDLSNNLLGSKSCVDLLVNIADCIPAGVTSLDLSSNGLRLTQVSLVTPKHVTSLNLCFNPLHEISIDGLEWLKDSLAHIQIIYLSYDMVNNMSREQRQAFRAVIPNIQTIILVDKNGKEIGPSHTAKIANLISELGGGNPEVPSLLNQCTFFVKTQGINIDKAYIPEELKKRIHDCNPL” here?
Answer: failed
